Measured values reported in paper PMC8880518, “Regulation of the Leucine Metabolism in Mortierella alpina” (Journal of Fungi, 2022).
Read-outs that look alike come from different tables or passages of the source. Blank lines part the entries; values can stand above or below the molecule they belong to.

Legend:
[1] = biological target: T1, α-isopropylmalate synthase LeuA1 (Mortierella alpina, UniProt A0A9P6IVH7); experiment: continuous DTNB assay of CoA release with purified recombinant enzyme; type: biochemical
T1 construct: gene BGZ70_001638; N-terminally His6-tagged LeuA1

[2] = biological target: T2, BCAA aminotransferase BatA (Mortierella alpina, UniProt A0A9P6M176); experiment: activity of purified enzyme with and without PLP (HILIC-UHPLC-MS); type: biochemical
T2 construct: gene BCAT1; 374 aa), N-terminally His6-tagged
T2 sequence (A0A9P6M176 entry or part of it): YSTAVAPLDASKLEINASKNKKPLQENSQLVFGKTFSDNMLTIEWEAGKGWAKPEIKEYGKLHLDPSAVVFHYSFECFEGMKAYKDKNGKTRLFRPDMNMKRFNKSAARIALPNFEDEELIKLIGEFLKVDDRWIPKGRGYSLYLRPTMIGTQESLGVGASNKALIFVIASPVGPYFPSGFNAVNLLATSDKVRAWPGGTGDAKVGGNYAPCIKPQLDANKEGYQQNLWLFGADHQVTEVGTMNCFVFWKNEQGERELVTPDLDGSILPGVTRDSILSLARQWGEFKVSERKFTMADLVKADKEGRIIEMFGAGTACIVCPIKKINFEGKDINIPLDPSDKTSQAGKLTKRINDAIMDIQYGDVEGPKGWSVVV

[3] = biological target: LeuA1, α-isopropylmalate synthase of Mortierella alpina (Mortierella alpina); experiment: SEC; size exclusion chromatography of the purified His6-tagged proteins in solution; conditions are in the Supplementary Materials
[4] = substrate: CCC(=O)C(=O)O; experiment: Michaelis-Menten kinetics (KM), DTNB assay with purified recombinant enzyme; type: biochemical, Mortierella alpina; details: divalent cation (Mg2+, exchangeable with Ca2+ or Mn2+)
[5] = substrate: CC(C)C(=O)C(=O)O; experiment: as above; type: biochemical, Mortierella alpina; details: divalent cation (Mg2+, exchangeable with Ca2+ or Mn2+) substrate binding pocket
purified protein = substrate: CC(=O)SCCNC(=O)CCNC(=O)[C@H](O)C(C)(C)COP(=O)(O)OP(=O)(O)OC[C@H]1O[C@@H](n2cnc3c(N)ncnc32)[C@H](O)[C@@H]1OP(=O)(O)O; experiment: purified protein; details: divalent cation (Mg2+, exchangeable with Ca2+ or Mn2+)

Molecule: Cc1ncc(COP(=O)(O)O)c(C=O)c1O [PLP, pyridoxal phosphate]
activity of purified enzyme with and without PLP (HILIC-UHPLC-MS) [2]: The enzyme converted all BCAAs (L-Ile, L-Leu, L-Val) and their respective α-keto acids in a PLP-dependent manner

Molecule: CCC(=O)SCCNC(=O)CCNC(=O)[C@H](O)C(C)(C)COP(=O)(O)OP(=O)(O)OC[C@H]1O[C@@H](n2cnc3c(N)ncnc32)[C@H](O)[C@@H]1OP(=O)(O)O [Prop-CoA, propionyl-CoA]
Ki [1]: 320 ± 121 µM

B1: α-isopropylmalate synthase LeuA1 (Mortierella alpina) (protein)
chain: MAQANKDKLIIFDTTLRDGEQSPGVTLTVNEKIEIAKQLSRLGVDVLEAGFPVASQGDFDAVERIAIEVGPLMVGREALGKPITIAGLARAVPADIQRCYDAIAKAPHKRIHTFLATSDIHLEHKLKISRDECVKRAVAAVSFAKTLVQDVEFSPEDAGRSDQDFLCKVLSAVIEAGATTLNIPDTVGYNMPEEYGSMIKYLIANTKGSDTVIWSAHCHNDLGLATANTLSGIMNGIRQVEVTINGIGERAGNTAMEEVVMAIHTHPNFFPVYHTINTPLFFRISQLVSSLSGMAVQSNKAIVGANAFLHESGIHQDGVLKNKTTYEIISPETVGANTVNLVLGKHSGRAAFKSRLQELGFGELSDEEFQVAFNSFKTLADSKKRVTEQDLLALLSDQVSAASGDKATFVIKSLQVVSGTSFATATVQLQNSQTGDVVVDAAIGKSGPVEAVFLAIQRLVGKRIRLLKFDITAVGEGVDALGQVSVKIAEDTSSPGSSDNDETAEEAKDSESKANEISQATYHGHGADSDIIQAATKAYLNAINRLVANENERLLGERKVDV
notes: N-terminally His6-tagged LeuA1
Km [4]: 280.8 ± 45.0 µM | kcat [4]: 47.4 ± 5.41 s⁻¹ | kcat/Km [4]: 169000 M⁻¹ s⁻¹ | Km [5]: 56.9 ± 6.3 µM | kcat [5]: 26.6 ± 1.2 s⁻¹ | kcat/Km [5]: 467000 M⁻¹ s⁻¹ | Km (purified protein): 28.6 ± 4.1 µM | kcat (purified protein): 25 s⁻¹ | kcat/Km (purified protein): 873000 M⁻¹ s⁻¹

Further lines, results first:

Ki ([1]; read-out: KI): 53 ± 2.5 µM
Molecule: CC(C)C[C@H](N)C(=O)O [Leu, L-leucine]

Ki ([1]; read-out: KI): 293 ± 30.4 µM
Molecule: CC(C)CC(=O)C(=O)O [KIC, α-ketoisocaproate]

stoichiometry N [3]: 6
Molecule: LeuA1, α-isopropylmalate synthase of Mortierella alpina (enzyme)
